T1: Serum-derived human C1s (human, UniProt P09871 16-688)
T1 construct: The analyte was C1s purified from serum; also called hC1s
T1 sequence: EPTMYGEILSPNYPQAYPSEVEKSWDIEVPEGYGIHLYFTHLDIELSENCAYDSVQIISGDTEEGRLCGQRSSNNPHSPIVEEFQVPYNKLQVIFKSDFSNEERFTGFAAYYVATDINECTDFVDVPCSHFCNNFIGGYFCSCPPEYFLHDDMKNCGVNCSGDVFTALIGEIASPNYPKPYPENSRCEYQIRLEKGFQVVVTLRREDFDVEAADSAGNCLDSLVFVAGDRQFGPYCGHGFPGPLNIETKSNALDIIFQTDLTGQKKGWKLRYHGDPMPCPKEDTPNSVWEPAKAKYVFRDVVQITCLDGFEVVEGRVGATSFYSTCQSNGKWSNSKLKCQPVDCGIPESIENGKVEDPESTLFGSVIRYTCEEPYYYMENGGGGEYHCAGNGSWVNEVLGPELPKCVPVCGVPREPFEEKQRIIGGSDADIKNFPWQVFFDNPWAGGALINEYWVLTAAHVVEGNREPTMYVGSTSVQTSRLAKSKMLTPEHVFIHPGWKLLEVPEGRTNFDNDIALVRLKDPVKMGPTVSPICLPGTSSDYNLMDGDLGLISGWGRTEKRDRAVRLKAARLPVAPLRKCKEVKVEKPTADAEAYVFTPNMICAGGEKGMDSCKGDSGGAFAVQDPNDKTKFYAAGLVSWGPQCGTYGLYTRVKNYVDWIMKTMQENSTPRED


Tests used:
Serum-derived human C1s [1] = molecular target: T1, Serum-derived human C1s; assay: SPR Biacore T200, 37 C, ratio of KD pH 5.8 / pH 7.4, 1.2 mM CaCl2
Procedure: The binding affinity of all histidine-substituted variants at pH 7.4 and pH 5.8 were determined at 37 degrees C. using Biacore T200 instrument (GE Healthcare). Recombinant Protein A/G (Pierce) was immobilized onto all flow cells of a CM4 sensor chip using amine coupling kit (GE Healthcare). Antibodies and analytes were prepared in 7(+) buffer (20 mM ACES, 150 mM NaCl, 1.2 mM CaCl2, 0.05% Tween 20, 0.005% NaN3, pH 7.4) or 5(+) buffer (20 mM ACES, 150 mM NaCl, 1.2 mM CaCl2), 0.05% Tween 20, 0.005% NaN3, pH 5.8). Each antibody was captured onto the sensor surface by protein A/G. Antibody capture levels were aimed at 200 resonance unit (RU). […] Sensor surface was regenerated each cycle with 10 mM Glycine-HCl pH 1.5. […] An additional dissociation phase at pH 5.8 was integrated immediately after the dissociation phase at pH 7.4. This dissociation rate in 5(+) buffer was determined by processing and fitting data using Scrubber 2.0 (BioLogic Software) curve fitting software. […]

Serum-derived human C1s [2] = molecular target: T1, Serum-derived human C1s; assay: SPR Biacore T200, 37 C, antibody captured on protein A/G, pH 5.8, 1.2 mM CaCl2
Procedure: (§1) The binding affinity of all histidine-substituted variants at pH 7.4 and pH 5.8 were determined at 37 degrees C. using Biacore T200 instrument (GE Healthcare). Recombinant Protein A/G (Pierce) was immobilized onto all flow cells of a CM4 sensor chip using amine coupling kit (GE Healthcare). Antibodies and analytes were prepared in 7(+) buffer (20 mM ACES, 150 mM NaCl, 1.2 mM CaCl2, 0.05% Tween 20, 0.005% NaN3, pH 7.4) or 5(+) buffer (20 mM ACES, 150 mM NaCl, 1.2 mM CaCl2), 0.05% Tween 20, 0.005% NaN3, pH 5.8). Each antibody was captured onto the sensor surface by protein A/G. Antibody capture levels were aimed at 200 resonance unit (RU). […] Sensor surface was regenerated each cycle with 10 mM Glycine-HCl pH 1.5. […] An additional dissociation phase at pH 5.8 was integrated immediately after the dissociation phase at pH 7.4. This dissociation rate in 5(+) buffer was determined by processing and fitting data using Scrubber 2.0 (BioLogic Software) curve fitting software.

Serum-derived human C1s [3] = molecular target: T1, Serum-derived human C1s; assay: SPR Biacore T200, 37 C, antibody captured on protein A/G, pH 7.4, 1.2 mM CaCl2
Procedure: as §1

Serum-derived human C1s [4] = molecular target: T1, Serum-derived human C1s; assay: SPR Biacore T200, 37 C, ratio of dissociation rates pH 5.8 / pH 7.4, 1.2 mM CaCl2
Procedure: as §1

Binder | KD (5.8+)/KD (7.4+) (Serum-derived human C1s [1]) | koff (Serum-derived human C1s [2]) [s⁻¹] | kon (Serum-derived human C1s [2]) [M⁻¹ s⁻¹] | kon (Serum-derived human C1s [3]) [M⁻¹ s⁻¹] | koff (5.8+ of 775+)/koff (7.4+) (Serum-derived human C1s [4]) | Kd (Serum-derived human C1s [2]) [nM] | Kd (Serum-derived human C1s [3]) [nM]
IPN009VH2/IPN009VK3-SG136 (antibody, human IgG1, kappa, also called parent antibody) heavy: EVMLVESGGGLVKPGGSLRLSCAASGFTFSNYAMSWVRQAPGKGLEWVATISSGGSHTYYLDSVKGRFTISRDNSKDTLYLQMNSLRAEDTALYYCARLFTGYAMDYWGQGTLVTVSSASTKGPSVFPLAPSSKSTSGGTAALGCLVKDYFPEPVTVSWNSGALTSGVHTFPAVLQSSGLYSLSSVVTVPSSSLGTQTYICNVNHKPSNTKVDKKVEPKSCDKTHTCPPCPAPELRRGPSVFLFPPKPKDTLMISRTPEVTCVVVDVSHEDPEVKFNWYVDGVEVHNAKTKPREEQYNSTYRVVSVLTVLHQDWLNGKEYKCKVSNKGLPSSIEKTISKAKGQPREPQVYTLPPSREEMTKNQVSLTCLVKGFYPSDIAVEWESNGQPENNYKTTPPVLDSDGSFFLYSKLTVDKSRWQQGNVFSCSVMHEALHNHYTQKSLSLSP light: QIVLTQSPATLSLSPGERATLSCTASSSVSSSYLHWYQQKPGKAPKLWIYSTSNLASGVPSRFSGSGSGTDYTLTISSLQPEDFATYYCHQYYRLPPITFGQGTKLEIKRTVAAPSVFIFPPSDEQLKSGTASVVCLLNNFYPREAKVQWKVDNALQSGNSQESVTEQDSKDCTYSLSSTLTLSKADYEKHKVYACEVTHQGLSSPVTKSFNRGEC | 0.4 | 0.000162 | 360000 | 344000 | 0.2 | – | –
IPN92H0033/IPN009VK3-SG136 (antibody, human IgG1, kappa, VH is IPN009VH2 with Y99H (Kabat)) heavy: EVMLVESGGGLVKPGGSLRLSCAASGFTFSNYAMSWVRQAPGKGLEWVATISSGGSHTYYLDSVKGRFTISRDNSKDTLYLQMNSLRAEDTALYYCARLFTGHAMDYWGQGTLVTVSSASTKGPSVFPLAPSSKSTSGGTAALGCLVKDYFPEPVTVSWNSGALTSGVHTFPAVLQSSGLYSLSSVVTVPSSSLGTQTYICNVNHKPSNTKVDKKVEPKSCDKTHTCPPCPAPELRRGPSVFLFPPKPKDTLMISRTPEVTCVVVDVSHEDPEVKFNWYVDGVEVHNAKTKPREEQYNSTYRVVSVLTVLHQDWLNGKEYKCKVSNKGLPSSIEKTISKAKGQPREPQVYTLPPSREEMTKNQVSLTCLVKGFYPSDIAVEWESNGQPENNYKTTPPVLDSDGSFFLYSKLTVDKSRWQQGNVFSCSVMHEALHNHYTQKSLSLSP light: QIVLTQSPATLSLSPGERATLSCTASSSVSSSYLHWYQQKPGKAPKLWIYSTSNLASGVPSRFSGSGSGTDYTLTISSLQPEDFATYYCHQYYRLPPITFGQGTKLEIKRTVAAPSVFIFPPSDEQLKSGTASVVCLLNNFYPREAKVQWKVDNALQSGNSQESVTEQDSKDCTYSLSSTLTLSKADYEKHKVYACEVTHQGLSSPVTKSFNRGEC | 0.9 | 0.000362 | 389000 | 377000 | 0.7 | – | –
IPN009VH2/IPN93L0023-SG136 (antibody, human IgG1, kappa, name in Kabat numbering, also called IPN00VH2/IPN93L0023-SG136) heavy: EVMLVESGGGLVKPGGSLRLSCAASGFTFSNYAMSWVRQAPGKGLEWVATISSGGSHTYYLDSVKGRFTISRDNSKDTLYLQMNSLRAEDTALYYCARLFTGYAMDYWGQGTLVTVSSASTKGPSVFPLAPSSKSTSGGTAALGCLVKDYFPEPVTVSWNSGALTSGVHTFPAVLQSSGLYSLSSVVTVPSSSLGTQTYICNVNHKPSNTKVDKKVEPKSCDKTHTCPPCPAPELRRGPSVFLFPPKPKDTLMISRTPEVTCVVVDVSHEDPEVKFNWYVDGVEVHNAKTKPREEQYNSTYRVVSVLTVLHQDWLNGKEYKCKVSNKGLPSSIEKTISKAKGQPREPQVYTLPPSREEMTKNQVSLTCLVKGFYPSDIAVEWESNGQPENNYKTTPPVLDSDGSFFLYSKLTVDKSRWQQGNVFSCSVMHEALHNHYTQKSLSLSP light: QIVLTQSPATLSLSPGERATLSCTASSSVSSSYLHWYQQKPGKAPKLWIYSTSNLASGVPSRFSGSGSGTDYTLTISSLQPEDFATYYCHQYYRHPPITFGQGTKLEIKRTVAAPSVFIFPPSDEQLKSGTASVVCLLNNFYPREAKVQWKVDNALQSGNSQESVTEQDSKDCTYSLSSTLTLSKADYEKHKVYACEVTHQGLSSPVTKSFNRGEC | 0.9 | 0.000818 | 330000 | 227000 | 1.1 | 2.48 | 2.77

Results, then the binder that gave them:

KD (5.8+)/KD (7.4+) (Serum-derived human C1s [1]) | koff (Serum-derived human C1s [2]) [s⁻¹] | kon (Serum-derived human C1s [2]) [M⁻¹ s⁻¹] | kon (Serum-derived human C1s [3]) [M⁻¹ s⁻¹] | koff (5.8+ of 775+)/koff (7.4+) (Serum-derived human C1s [4]) | Kd (Serum-derived human C1s [2]) [nM] | Kd (Serum-derived human C1s [3]) [nM] | Binder
1.5 | 0.00126 | 290000 | 199000 | 1.9 | – | – | IPN009VH2/IPN93L0021-SG136 (antibody, human IgG1, kappa, name in Kabat numbering, The substitution is numbered by Kabat) heavy: EVMLVESGGGLVKPGGSLRLSCAASGFTFSNYAMSWVRQAPGKGLEWVATISSGGSHTYYLDSVKGRFTISRDNSKDTLYLQMNSLRAEDTALYYCARLFTGYAMDYWGQGTLVTVSSASTKGPSVFPLAPSSKSTSGGTAALGCLVKDYFPEPVTVSWNSGALTSGVHTFPAVLQSSGLYSLSSVVTVPSSSLGTQTYICNVNHKPSNTKVDKKVEPKSCDKTHTCPPCPAPELRRGPSVFLFPPKPKDTLMISRTPEVTCVVVDVSHEDPEVKFNWYVDGVEVHNAKTKPREEQYNSTYRVVSVLTVLHQDWLNGKEYKCKVSNKGLPSSIEKTISKAKGQPREPQVYTLPPSREEMTKNQVSLTCLVKGFYPSDIAVEWESNGQPENNYKTTPPVLDSDGSFFLYSKLTVDKSRWQQGNVFSCSVMHEALHNHYTQKSLSLSP light: QIVLTQSPATLSLSPGERATLSCTASSSVSSSYLHWYQQKPGKAPKLWIYSTSNLASGVPSRFSGSGSGTDYTLTISSLQPEDFATYYCHQYHRLPPITFGQGTKLEIKRTVAAPSVFIFPPSDEQLKSGTASVVCLLNNFYPREAKVQWKVDNALQSGNSQESVTEQDSKDCTYSLSSTLTLSKADYEKHKVYACEVTHQGLSSPVTKSFNRGEC
1.3 | 0.000956 | 221000 | 180000 | 1.2 | – | – | IPN009VH2/IPN93L0024-SG136 (antibody, human IgG1, kappa, VL is IPN009VK3 with P95H (Kabat)) heavy: EVMLVESGGGLVKPGGSLRLSCAASGFTFSNYAMSWVRQAPGKGLEWVATISSGGSHTYYLDSVKGRFTISRDNSKDTLYLQMNSLRAEDTALYYCARLFTGYAMDYWGQGTLVTVSSASTKGPSVFPLAPSSKSTSGGTAALGCLVKDYFPEPVTVSWNSGALTSGVHTFPAVLQSSGLYSLSSVVTVPSSSLGTQTYICNVNHKPSNTKVDKKVEPKSCDKTHTCPPCPAPELRRGPSVFLFPPKPKDTLMISRTPEVTCVVVDVSHEDPEVKFNWYVDGVEVHNAKTKPREEQYNSTYRVVSVLTVLHQDWLNGKEYKCKVSNKGLPSSIEKTISKAKGQPREPQVYTLPPSREEMTKNQVSLTCLVKGFYPSDIAVEWESNGQPENNYKTTPPVLDSDGSFFLYSKLTVDKSRWQQGNVFSCSVMHEALHNHYTQKSLSLSP light: QIVLTQSPATLSLSPGERATLSCTASSSVSSSYLHWYQQKPGKAPKLWIYSTSNLASGVPSRFSGSGSGTDYTLTISSLQPEDFATYYCHQYYRLHPITFGQGTKLEIKRTVAAPSVFIFPPSDEQLKSGTASVVCLLNNFYPREAKVQWKVDNALQSGNSQESVTEQDSKDCTYSLSSTLTLSKADYEKHKVYACEVTHQGLSSPVTKSFNRGEC

From patent US20210032365A1 (Chugai, published 2021)
